Values of other authors as cited in publication PMC9477731.

Target: CD28 (Homo sapiens) (UniProt P10747)

Kd: 4 µM
Substance: CD80 (from UniProt P33681)
